Test results as given in publication PMC8497506, “Modular fluorescent nanoparticle DNA probes for detection of peptides and proteins”.

Legend:
[1] = biological target: T1, HHH peptide (synthetic); assay: plate binding assay (ELONA); streptavidin conjugate; Fig. S4B legend calls it EC50; 10 mM HEPES, 1.2 mM NaCl (so in the source), 5 mM MgCl2, 5 mM KCl, pH 7.4, 0.1% Tween-20, 1% sheared salmon sperm DNA, 300 uM dextran sulfate; 60 min; temperature not stated; conditions: tags: N-terminal Cys-biotin-PEG2; label: streptavidin conjugates or HRP
T1 chain: GHHHG

[2] = biological target: T1, HHH peptide; assay: plate binding assay (ELONA); EC50, Streptavidin SureLight APC; 10 mM HEPES, 1.2 mM NaCl (so in the source), 5 mM MgCl2, 5 mM KCl, pH 7.4, 0.1% Tween-20, 1% sheared salmon sperm DNA, 300 uM dextran sulfate; 60 min; temperature not stated; conditions: tags: N-terminal Cys-biotin-PEG2; label: streptavidin conjugates or HRP
[3] = biological target: T1, HHH peptide; assay: plate binding assay (ELONA); EC50, Streptavidin APC; 10 mM HEPES, 1.2 mM NaCl (so in the source), 5 mM MgCl2, 5 mM KCl, pH 7.4, 0.1% Tween-20, 1% sheared salmon sperm DNA, 300 uM dextran sulfate; 60 min; temperature not stated; conditions: tags: N-terminal Cys-biotin-PEG2; label: streptavidin conjugates or HRP
[4] = biological target: T1, HHH peptide; assay: plate binding assay (ELONA); EC50, Streptavidin AlexaFluor 647; 10 mM HEPES, 1.2 mM NaCl (so in the source), 5 mM MgCl2, 5 mM KCl, pH 7.4, 0.1% Tween-20, 1% sheared salmon sperm DNA, 300 uM dextran sulfate; 60 min; temperature not stated; conditions: tags: N-terminal Cys-biotin-PEG2; label: streptavidin conjugates or HRP
[5] = biological target: T1, HHH peptide; assay: plate binding assay (ELONA); EC50, streptavidin conjugate; 10 mM HEPES, 1.2 mM NaCl (so in the source), 5 mM MgCl2, 5 mM KCl, pH 7.4, 0.1% Tween-20, 1% sheared salmon sperm DNA, 300 uM dextran sulfate; 60 min; temperature not stated; conditions: tags: N-terminal Cys-biotin-PEG2; label: streptavidin conjugate
[6] = biological target: T1, HHH peptide; assay: plate binding assay (ELONA); EC50, FluoSphere probe; 10 mM HEPES, 1.2 mM NaCl (so in the source), 5 mM MgCl2, 5 mM KCl, pH 7.4, 0.1% Tween-20, 1% sheared salmon sperm DNA, 300 uM dextran sulfate; 60 min; temperature not stated; conditions: tags: N-terminal Cys-biotin-PEG2; label: fluorescent FluoSphere; 24 bp duplex of strand 1 5' end with handle; rest single-stranded aptamer
[7] = biological target: T1, HHH peptide; assay: plate binding assay (ELONA); 10 mM HEPES, 1.2 mM NaCl (so in the source), 5 mM MgCl2, 5 mM KCl, pH 7.4, 0.1% Tween-20, 1% sheared salmon sperm DNA, 300 uM dextran sulfate; 60 min; temperature not stated; conditions: tags: N-terminal Cys-biotin-PEG2; label: fluorescent FluoSphere; 24 bp duplex of strand 1 5' end with handle; rest single-stranded aptamer
[8] = biological target: T2, Her2-his (UniProt P04626 23-652); assay: plate binding assay (ELONA); EC50, FluoSphere probe, avidity; 10 mM HEPES, 1.2 mM NaCl (so in the source), 5 mM MgCl2, 5 mM KCl, pH 7.4, 0.1% Tween-20, 1% sheared salmon sperm DNA, 300 uM dextran sulfate; 60 min; temperature not stated; conditions: protein: commercial; tags: His tag; label: fluorescent FluoSphere; 24 bp duplex of strand 1 5' end with handle; rest single-stranded aptamer
[9] = biological target: T2, Her2-his; assay: plate binding assay (ELONA); EC50, Qdot core; 10 mM HEPES, 1.2 mM NaCl (so in the source), 5 mM MgCl2, 5 mM KCl, pH 7.4, 0.1% Tween-20, 1% sheared salmon sperm DNA, 300 uM dextran sulfate; 60 min; temperature not stated; conditions: protein: commercial; tags: His tag; label: Qdot 655; 24 bp duplex of strand 1 5' end with handle; rest single-stranded aptamer
[10] = biological target: T2, Her2-his; assay: plate binding assay (ELONA); about twofold lower than pre-annealed probe; 10 mM HEPES, 1.2 mM NaCl (so in the source), 5 mM MgCl2, 5 mM KCl, pH 7.4, 0.1% Tween-20, 1% sheared salmon sperm DNA, 300 uM dextran sulfate; 60 min; temperature not stated; conditions: protein: commercial; tags: His tag; label: fluorescent FluoSphere
[11] = biological target: Myoglobin (UniProt P68082 2-154); assay: plate binding assay (ELONA); off-target; 10 mM HEPES, 1.2 mM NaCl (so in the source), 5 mM MgCl2, 5 mM KCl, pH 7.4, 0.1% Tween-20, 1% sheared salmon sperm DNA, 300 uM dextran sulfate; 60 min; temperature not stated; conditions: protein: commercial; label: fluorescent FluoSphere; 24 bp duplex of strand 1 5' end with handle; rest single-stranded aptamer
[12] = biological target: VEGF (UniProt P15692-4 27-191); assay: plate binding assay (ELONA); EC50, FluoSphere probe; 10 mM HEPES, 1.2 mM NaCl (so in the source), 5 mM MgCl2, 5 mM KCl, pH 7.4, 0.1% Tween-20, 1% sheared salmon sperm DNA, 300 uM dextran sulfate; 60 min; temperature not stated; conditions: protein: commercial; chain copies: 2; label: fluorescent FluoSphere; 24 bp duplex of strand 1 5' end with handle; rest single-stranded aptamer

B1: Biotin-B1 (ssDNA)
DNA: CATGCTTCCCCAGGGAGATGGTTTGCCGGTGGGCAGGTTTAGGGTCTGCTCGGGATTGCGGAGGAACATGCGTCGCAAAC
modifications: 5' biotin
In the case of B1, the Kd [1] is reported as 55 nM, the “apparent K (half saturation)” value [2] is reported as 9.9 nM and the “apparent K (half saturation)” value [3] is reported as 28 nM. For the same binder, the “apparent K (half saturation)” value [4] was 43 nM.

B2: Biotin-H3T (ssDNA)
DNA: GTTTGCCGGTGGGCAGGTTTAGGGTCTGCTCGGGATTGCGGAGGAACATGCGTCGCAAAC
modifications: 5' biotin
B2 was tested, and the “apparent K (half saturation)” value [5] was 30 nM.

B3: H3T annealed to DBCO-P7 handle on nanoparticle (mixed)
DNA 1: CAAGCAGAAGACGGCATACGAGATGTTTGCCGGTGGGCAGGTTTAGGGTCTGCTCGGGATTGCGGAGGAACATGCGTCGCAAACGTGTAGATCTCGGTGGTCGCCGTATCATT
DNA 2: ATCTCGTATGCCGTCTTCTGCTTG
modifications: handle 3' iSp9-DBCO coupled to azide-PEG
B3 was tested, and the “apparent K (half saturation)” value [6] was 12 nM.

B4: Her2 aptamer annealed to DBCO-P7 handle on nanoparticle (mixed)
DNA 1: CAAGCAGAAGACGGCATACGAGATTCTAAAAGGATTCTTCCCAAGGGGATCCAATTCAAACAGCGTGTAGATCTCGGTGGTCGCCGTATCATT
DNA 2: ATCTCGTATGCCGTCTTCTGCTTG
modifications: handle 3' iSp9-DBCO coupled to azide-PEG
B4: no binding [7].

B5: P7-B1 annealed to DBCO-P7 handle on nanoparticle (mixed)
DNA 1: CAAGCAGAAGACGGCATACGAGATCATGCTTCCCCAGGGAGATGGTTTGCCGGTGGGCAGGTTTAGGGTCTGCTCGGGATTGCGGAGGAACATGCGTCGCAAACGTGTAGATCTCGGTGGTCGCCGTATCATT
DNA 2: ATCTCGTATGCCGTCTTCTGCTTG
modifications: handle 3' iSp9-DBCO coupled to azide-PEG
B5 was tested, and the “apparent K (half saturation)” value [8] was 5.2 nM and the “apparent K (half saturation)” value [6] was 2.7 nM.

B6: P7-B1 annealed to DBCO-P7 handle on Qdot 655 (mixed)
DNA 1: B5 DNA 1
DNA 2: ATCTCGTATGCCGTCTTCTGCTTG
modifications: handle 3' iSp9-DBCO coupled to azide-PEG
For B6, the “apparent K (half saturation)” value [9] was 55 nM.

B7: DBCO-B1 directly conjugated to nanoparticle (ssDNA)
DNA: B5 DNA 1
modifications: 5' DBCO-C7 coupled to azide-PEG
B7: binds [10].

B8: VEGF aptamer annealed to DBCO-P7 handle on nanoparticle (mixed)
DNA 1: CAAGCAGAAGACGGCATACGAGATCCCGTCTTCCAGACAAGAGTGCAGGGGTGTAGATCTCGGTGGTCGCCGTATCATT
DNA 2: ATCTCGTATGCCGTCTTCTGCTTG
modifications: handle 3' iSp9-DBCO coupled to azide-PEG
With B8 the binding result [11] was “no binding” and the “apparent K (half saturation)” value [12] was 5.5 nM.
